# Experimental data from paper doi:10.1101/2024.07.30.605912 (bioRxiv, 2024).
# B1: Salmonella typhimurium ArnC (undecaprenyl-phosphate 4-deoxy-4-formamido-L-arabinose transferase) (enzyme)
# chain: MFDAAPIKKVSVVIPVYNEQESLPELIRRTTTACESLGKAWEILLIDDGSSDSSAELMVKASQEADSHIISILLNRNYGQHAAIMAGFSHVSGDLIITLDADLQNPPEEIPRLVAKADEGFDVVGTVRQNRQDSLFRKSASKIINLLIQRTTGKAMGDYGCMLRAYRRPIIDTMLRCHERSTFIPILANIFARRATEIPVHHAEREFGDSKYSFMRLINLMYDLVTCLTTTPLRLLSLLGSVIAIGGFSLSVLLIVLRLALGPQWAAEGVFMLFAVLFTFIGAQFIGMGLLGEYIGRIYNDVRARPRYFVQQVIYPESTPFTEESHQ
# Molecular target: the molecule itself
# Test: cryo-EM structure
protein,measurement,value
B1,stoichiometry N,4
